Experimental data reported in patent publication US20040071656A1, “Modulation of heat-shock-protein-based immunotherapies” (priority 2001, published 2004).

Key:
[1] = molecular target: T1, exoplasmic domain of human CD40 (GST-CD40) (Homo sapiens, UniProt P25942); assay: GST-CD40 pull-down of endogenous heat shock proteins from Hela cell lysate; assay type: binding; details: 80 or 400 pmol GST-CD40, immunoblot
T1 construct: The cDNA for the exoplasmic domain of CD40 (amino acids 20-212); made in house; host or cells: E. coli, pGEX-2T
T1 sequence (P25942 20-212): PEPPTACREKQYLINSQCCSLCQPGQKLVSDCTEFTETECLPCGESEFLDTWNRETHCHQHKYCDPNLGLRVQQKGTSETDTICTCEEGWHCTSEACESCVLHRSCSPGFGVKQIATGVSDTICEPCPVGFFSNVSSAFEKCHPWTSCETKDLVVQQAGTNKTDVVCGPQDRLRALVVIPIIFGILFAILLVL
Method: Binding assays with GST-CD40. For binding of endogenous Hsp70 and Hsc70 from Hela cell lysate, Hela cells were lysed as described above and centrifuged at 100,000 g at 4° C. for 1 h. 20 μl bed volume of Glutathione Sepharose 4 Fast Flow (Amersham Pharmacia) per sample were preincubated with 80 pmol or 400 pmol of GST or GST-CD40 fusion protein in 50 μl binding buffer. Unbound protein was removed by washing three times with PBS. The beads were treated with 1% BSA/PBS to avoid non-specific binding, and than incubated with 150 μl of Hela cell lysate in the presence of 2 mM DTT for 20 min at 16° C. […] 10 μl of the eluates was subjected to SDS-PAGE and analyzed by immunoblotting using an anti-Hsc/Hsp70 antibody and an anti-Hsp90: antibody (SPA822 and SPA835, Stressgen). […]
(§1) Details for FIG. 3. […] Thereafter samples were affinity purified on glutathione-Sepharose as outlined in Experimental Procedures, subjected to SDS-PAGE and analyzed by immunoblotting with antibodies directed against Hsc70 and Hsp70 (upper lanes), and against Hsp90 (lower lanes). […] After affinity purification samples were analyzed by immunoblotting as described in A, using antibodies directed against the His6-tag. […] Protein bound to Hsp70 was analyzed by affinity purification on Ni-NTA-agarose and immunoblotting with antibodies directed against CD40.

endogenous CD40 = molecular target: T2, endogenous CD40 (Mus musculus, UniProt P27512); assay: Binding assay with His6-tagged Hsp70 and Ni-NTA-agarose, ANA1 cell lysate; set-up: species or system murine; details: His-tagged Hsp70, with or without ADP
T2 construct: endogenous CD40 in extracts of LPS-stimulated ANA1-cells; endogenous in cells; host or cells: ANA1 murine macrophage cell line, LPS-stimulated
T2 sequence (P27512 20-289): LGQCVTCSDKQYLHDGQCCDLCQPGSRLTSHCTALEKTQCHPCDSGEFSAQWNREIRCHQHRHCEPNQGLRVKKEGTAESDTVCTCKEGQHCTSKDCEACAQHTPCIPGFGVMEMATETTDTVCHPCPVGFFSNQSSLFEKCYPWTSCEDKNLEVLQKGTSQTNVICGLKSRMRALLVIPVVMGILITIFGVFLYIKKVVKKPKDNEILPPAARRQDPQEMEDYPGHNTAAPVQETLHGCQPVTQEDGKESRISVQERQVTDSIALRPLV
Method: Binding assay with His6-tagged Hsp70 and Ni-NTA-agarose. ANA1-cells were stimulated with LPS as described above and lysed in lysis buffer (150 mM Tris/HCl, ph 7,5, 1% CHAPS) for 45 min at 4° C. Cell lysate was centrifuged at 100,000 g for 15 min at 4° C. […] of the supernatant was incubated with 10 μg of His6-tagged Hsp70, preincubated with ADP and a 30-fold excess of peptide C, or mock treated, as described above for biotinylated proteins, for 30 min at 4° C. Thereafter the samples were added to 20 μl of 1% BSA-treated Ni-NTA-agarose (Quiagen) and incubated for 30 min at 4° C. Unbound protein was removed by washing the beads three times with 1 ml lysis buffer, and immobilized proteins eluted with 10 μl SDS-PAGE-sample buffer by incubation for 5 min at 95° C. Eluates were analyzed by immunoblotting using an anti-CD40 antibody (CSA-180, Stressgen).
as §1

interaction with endogenous CD40 in extracts of LPS-stimulated ANA1-cells (endogenous CD40): interacted, in an ADP-dependent manner
Substance: Hsp70: Recombinant human heat shock protein 70, expressed and purified as His-tagged protein
binding to GST-CD40 from Hela-cell lysates [1]: bound to GST-CD40 in a concentration dependent manner
